Assay [1] has as its target T1, murine B7-H3 antigen (R&D cat# 1397-B3-050/CF) (murine, UniProt Q8VE98 29-244).
T1 construct: Commercial protein; also called mouse B7-H3
T1 sequence: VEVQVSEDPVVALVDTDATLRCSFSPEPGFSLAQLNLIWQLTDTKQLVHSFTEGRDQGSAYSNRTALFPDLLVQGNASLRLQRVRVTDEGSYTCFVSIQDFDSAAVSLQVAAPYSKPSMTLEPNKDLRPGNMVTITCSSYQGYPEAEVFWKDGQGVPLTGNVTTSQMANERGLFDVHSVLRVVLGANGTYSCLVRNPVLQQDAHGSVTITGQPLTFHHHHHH
In words: SPR (Biacore T200), antibody captured on Protein A chip, antigen in flow, 1:1 Langmuir fit. From the text:
A biosensor chip Protein A (Cat. # 29127556, GE) was used to affinity capture a certain amount of antibody to be tested. A series diluted of human 2Ig-B7-H3 antigen (Cat. #1949-B3-050/CF, R&D), human 4Ig-B7-H3 antigen (Cat. #11188-H08H, Sino Biological) or murine B7-H3 antigen (Cat. # 1397-B3-050/CF, R&D) was flowed through the surface of the chip. Real-time reaction signal was detected by using Biacore instrument (Biacore T200, GE), in order to obtain association and dissociation curves. After completion of each cycle of dissociation, the biochip was washed and regenerated with glycine-hydrochloric acid regeneration solution (pH 1.5) (Cat.#BR-1003-54, GE). The buffer used in the experiment was HBS-EP buffer solution (pH 7.4) (Cat. # BR-1001-88, GE).
The experimental data was fitted with BIA evaluation version 4.1 GE software in a (1:1) Langmuir model to obtain affinity values.

In assay [2] the target is B7-H3 on U87MG tumor cells (human) (UniProt Q5ZPR3). The experiment in a line: flow cytometry on U87MG cells, APC anti-human IgG Fc detection, geometric mean fluorescence.
Chain of B7-H3 on U87MG tumor cells (human) (Q5ZPR3 29-534): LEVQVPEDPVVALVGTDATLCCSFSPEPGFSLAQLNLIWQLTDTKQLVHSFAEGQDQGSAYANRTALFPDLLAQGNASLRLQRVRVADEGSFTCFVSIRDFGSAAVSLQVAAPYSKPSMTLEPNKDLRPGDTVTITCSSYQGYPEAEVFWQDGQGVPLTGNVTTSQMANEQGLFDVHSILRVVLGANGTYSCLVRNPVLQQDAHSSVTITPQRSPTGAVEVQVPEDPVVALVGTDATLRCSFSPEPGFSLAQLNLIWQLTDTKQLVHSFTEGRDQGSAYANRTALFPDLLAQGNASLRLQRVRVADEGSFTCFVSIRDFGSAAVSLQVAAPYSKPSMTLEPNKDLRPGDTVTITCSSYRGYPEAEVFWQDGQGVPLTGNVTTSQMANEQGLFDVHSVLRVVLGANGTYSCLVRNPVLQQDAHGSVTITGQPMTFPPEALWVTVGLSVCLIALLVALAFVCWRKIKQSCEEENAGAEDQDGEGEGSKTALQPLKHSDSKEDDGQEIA

Among the data in patent US20210101984A1 (JIANGSU HENGRUI MEDICINE, published 2021) are Kd and EC50 (read off the curve) values, retold here.

B1: h1703-IgG1 (antibody, V domains shown)
VH: QVQLQESGGGLVQPGGSLRLSCAASGFTFSSYAMSWVRQAPGKGLEWVSAISGSGGSTYYADSVKGRYTISRDNSKNTLYLQMNSLRAEDTAVYYCAKGVGPVHALDVWGQGTTVTVSS
VL: DIRLTQSPSSLSASVGDRVTITCRASQSISTYLNWYQQKPGKAPILLINAVSGLQSGVPSRFSGSGSGTHFTLTITSLQPEDFATYYCQQSYSTPMWTFGQGTKVEIKR
notes: Fully human IgG1 with kappa light chain, from an scFv phage library, expressed in HEK293E cells
For the molecule B1, in assay [1], binding was characterised by a dissociation constant (Kd) of 502 nM.

B2: h1702-IgG1 (antibody, V domains shown)
VH: QVQLVQSGGGVVQPGTSLRLSCAASGFIFSSSAMHWVRQAPGKGLEWVAVISYDGSNKYYVDSVKGRFTISRDNSKNTLYLQMNSLRAEDTAVYYCARSARLYASFDYWGQGALVTVSS
VL: QTVVTQEPSFSVSPGGTVTLTCGLSSGSVSTSHYPSWYQQTPGQAPRMLIYNTNTRSSGVPDRFSGSILGNKAALTITGAQADDESDYYCAIHVDRDIWVFGGGTKLTVLG
notes: Fully human IgG1 with lambda light chain, from an scFv phage library, expressed in HEK293E cells
Take B2: in assay [2], the EC50 (read off the curve) is 2 nM. Also, binding in assay [1] was characterised by a dissociation constant (Kd) of 1470 nM.
